In experiment [1] the target is T1, MC1-R (B16-F1 mouse melanoma cells) (mouse, UniProt Q01727 1-315).
T1 construct: whole, on cells; Assayed as membranes prepared from B16-F1 mouse melanoma cells; also called MC1 receptor; melanocortin-1 receptor
The experiment can be described thus: competition with 125I-NDP-MSH, B16-F1 membranes, 1 µM peptide.

Experiment [2] deals with T2, hMC3-R (human, UniProt P41968 1-323).
T2 construct: whole, on cells; Assayed as membranes prepared from transfected HEK 293 cells; also called MC3 receptor; melanocortin-3 receptor
T2 sequence (P41968 whole entry): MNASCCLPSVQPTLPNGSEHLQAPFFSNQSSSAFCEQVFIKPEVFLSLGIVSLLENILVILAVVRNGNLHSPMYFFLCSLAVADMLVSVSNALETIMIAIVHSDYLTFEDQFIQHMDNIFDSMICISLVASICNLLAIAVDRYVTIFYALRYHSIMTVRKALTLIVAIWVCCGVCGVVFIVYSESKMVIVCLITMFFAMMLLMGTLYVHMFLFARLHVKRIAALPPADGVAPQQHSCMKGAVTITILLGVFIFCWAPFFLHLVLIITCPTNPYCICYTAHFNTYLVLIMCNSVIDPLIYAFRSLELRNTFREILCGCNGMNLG
The experiment is described as follows: competition with 125I-NDP-MSH, HEK 293 hMC3-R membranes, 1 µM peptide.

Experiment [3] addresses T3, hMC4-R (human, UniProt P32245 1-332).
T3 construct: whole, on cells; cAMP assay on whole transfected HEK-293 cells; also called MC4 receptor; melanocortin-4 receptor
The experiment is described as follows: titrated competitive binding assay on receptor membranes.

Experiment [4] has as its target T4, hMC5-R (human, UniProt P33032 1-325).
T4 construct: whole, on cells; Assayed as membranes prepared from transfected HEK 293 cells; also called MC5 receptor; melanocortin-5 receptor
Described as above.

The target of experiment [5] is T1, MC1-R (B16-F1 mouse melanoma cells). The experiment is described as above.
For experiment [6], the target named is T2, hMC3-R. The experiment is described as above.
Experiment [7] deals with T3, hMC4-R. The experiment is described as follows: competition with 125I-NDP-MSH, HEK 293 hMC4-R membranes, 1 µM peptide.
For experiment [8], the target named is T4, hMC5-R. The experiment is described as follows: competition with 125I-NDP-MSH, HEK 293 hMC5-R membranes, 1 µM peptide.

T1 sequence (Q01727 whole entry): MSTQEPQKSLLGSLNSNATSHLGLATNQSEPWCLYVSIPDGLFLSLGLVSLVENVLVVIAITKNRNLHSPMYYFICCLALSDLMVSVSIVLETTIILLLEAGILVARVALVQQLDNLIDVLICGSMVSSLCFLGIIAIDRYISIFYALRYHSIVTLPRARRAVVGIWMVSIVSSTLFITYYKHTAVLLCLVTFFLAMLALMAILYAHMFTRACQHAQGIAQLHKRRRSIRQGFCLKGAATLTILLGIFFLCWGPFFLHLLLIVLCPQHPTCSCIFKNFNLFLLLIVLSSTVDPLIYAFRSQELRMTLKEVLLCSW
T3 sequence (P32245 whole entry): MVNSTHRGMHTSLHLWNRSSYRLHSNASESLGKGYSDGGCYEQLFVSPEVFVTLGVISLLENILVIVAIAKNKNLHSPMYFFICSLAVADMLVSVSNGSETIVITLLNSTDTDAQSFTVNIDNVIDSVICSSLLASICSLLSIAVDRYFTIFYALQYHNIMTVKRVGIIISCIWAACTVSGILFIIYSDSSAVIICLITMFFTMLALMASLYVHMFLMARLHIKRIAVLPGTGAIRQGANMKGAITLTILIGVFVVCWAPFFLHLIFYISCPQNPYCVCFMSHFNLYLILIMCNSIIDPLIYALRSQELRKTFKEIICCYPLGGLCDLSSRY
T4 sequence (P33032 whole entry): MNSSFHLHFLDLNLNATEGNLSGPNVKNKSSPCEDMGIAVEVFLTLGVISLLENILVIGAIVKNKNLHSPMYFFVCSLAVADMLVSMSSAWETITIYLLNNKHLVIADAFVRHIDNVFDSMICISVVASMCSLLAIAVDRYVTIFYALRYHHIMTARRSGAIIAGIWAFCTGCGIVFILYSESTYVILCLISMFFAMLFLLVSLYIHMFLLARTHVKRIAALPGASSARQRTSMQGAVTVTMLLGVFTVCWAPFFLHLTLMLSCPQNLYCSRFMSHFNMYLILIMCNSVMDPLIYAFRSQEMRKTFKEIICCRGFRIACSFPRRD

B1: Ac-Nle-cyclo(-Asp-His-D-Phe-Lys-Trp-Lys)-OH (peptide)
peptide: XDHFKWK
modifications: N-terminal acetyl; Nle at 1 (X); D-Phe at 4; cyclo (lactam) between side chains of Asp 2 and Lys 7; C-terminal free acid (-OH)
notes: Synthetic cyclic heptapeptide; X = norleucine; also called Ac-Nle-cyclo( -Asp-His-D-Phe-Lys-Trp-Lsy)-OH
For the molecule B1, the “Percent Inhibition At 1 µM concentration” value was determined as 86% in experiment [1], 8% in experiment [2], 46% in experiment [7] and 17% in experiment [8]. Besides, the Ki in experiment [3] stood at 742 µM; in experiment [4], 2.53 µM; in experiment [5], 0.0099 µM; in experiment [6], 10.8 µM.

These data come from patent US7176279 (PALATIN TECHNOLOGIES, dated 2007).
